Experiments:
Experiment in all cases: flow cytometry, biotinylated ligand + streptavidin-PE on stably transfected BHK cells
[1] = target: T1, human IL-17A (biotinylated) (human, UniProt Q16552 24-155, biotin label (sites not given))
T1 sequence (looked up): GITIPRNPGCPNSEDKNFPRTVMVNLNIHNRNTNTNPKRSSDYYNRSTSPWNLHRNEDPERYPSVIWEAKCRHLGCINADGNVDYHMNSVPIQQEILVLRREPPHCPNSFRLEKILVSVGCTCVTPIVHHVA

[2] = target: T2, human IL-17B (biotinylated) (human, UniProt Q9UHF5 21-180, biotin label (sites not given))
T2 sequence (looked up): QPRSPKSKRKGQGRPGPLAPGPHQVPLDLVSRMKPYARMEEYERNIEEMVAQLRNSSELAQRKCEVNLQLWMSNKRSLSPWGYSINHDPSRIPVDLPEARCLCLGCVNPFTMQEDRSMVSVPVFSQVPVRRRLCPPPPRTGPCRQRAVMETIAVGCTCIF

[3] = target: T3, human IL-17D (biotinylated) (human, UniProt Q8TAD2 18-202, limits assumed, biotin label (sites not given))
T3 sequence (looked up): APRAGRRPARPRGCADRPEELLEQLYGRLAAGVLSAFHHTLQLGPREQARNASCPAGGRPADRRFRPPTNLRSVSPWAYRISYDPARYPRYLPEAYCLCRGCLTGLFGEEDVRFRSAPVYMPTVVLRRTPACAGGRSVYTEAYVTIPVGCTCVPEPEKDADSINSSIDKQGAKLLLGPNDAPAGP

[4] = target: T4, human IL-17F (biotinylated) (human, UniProt Q96PD4 31-163, biotin label (sites not given))
T4 sequence (looked up): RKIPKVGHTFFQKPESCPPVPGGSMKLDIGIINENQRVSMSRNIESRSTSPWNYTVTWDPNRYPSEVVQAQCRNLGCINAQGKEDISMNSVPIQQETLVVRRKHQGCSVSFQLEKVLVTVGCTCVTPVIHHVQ

Measured: binding result

B1: human ZcytoR21x3 (receptor)
chain: AGIGFRHLPHWNTRCPLASHTVFNGASSTSWCRNPKSLPHSSSIGDTRCQHLLRGSCCLVVTCLRRAITFPSPPQTSPTRDFALKGPNLRIQRHGKVFPDWTHKGPEFSFDLLPEARAIRVTISSGPEVSVRLCHQWALECEELSSPYDVQKIVSGGHTVELPYEFLLPCLCIEASYLQEDTVRRKKCPFQSWPEAYGSDFWKSVHFTDYSQHTQMVMALTLRCPLKLEAALCQRHDWHTLCKDLPNATARESDGWYVLEKVDLHPQLCFKFSFGNSSHVECPHQTGITEARDWPSHIQVSCSPGVPIREPQTSNCLWFVRNEATQQEARGSSPVSLDLIIPFLRPGCCVLVWRSDVQFAWKHLLCPDVSYRHLGLLILALLALLTLLGVVLALTCRRPQSGPGPARPVLLLHAADSEAQRRLVGALAELLRAALGGGRDVIVDLWEGRHVARVGPLPWLWAARTRVAREQGTVLLLWSGADLRPVSGPDPRAAPLLALLHAAPRPLLLLAYFSRLCAKGDIPPPLRALPRYRLLRDLPRLLRALDARPFAEATSWGRLGARQRRQSRLELCSRLEREAARLADLG
notes: also called hcytor21x3
no binding: [1] | [2] | [3] | [4]
